Measured values: paper PMC5039092 (FEBS letters, 2016)

Assays:
[1] = target: the molecule itself; experiment: SDS-PAGE and Western blot
SEC = target: the molecule itself; experiment: SEC

Protein | binding result [1] | binding result (SEC)
C394S mutant of full length human adenosine A2a receptor with a C-terminal 10 histidine tag (receptor, UniProt P29274 1-412, looked up) MPIMGSSVYITVELAIAVLAILGNVLVCWAVWLNSNLQNVTNYFVVSLAAADIAVGVLAIPFAITISTGFCAACHGCLFIACFVLVLTQSSIFSLLAIAIDRYIAIRIPLRYNGLVTGTRAKGIIAICWVLSFAIGLTPMLGWNNCGQPKEGKNHSQGCGEGQVACLFEDVVPMNYMVYFNFFACVLVPLLLMLGVYLRIFLAARRQLKQMESQPLPGERARSTLQKEVHAAKSLAIIVGLFALCWLPLHIINCFTFFCPDCSHAPLWLMYLAIVLSHTNSVVNPFIYAYRIREFRQTFRKIIRSHVLRQQEPFKAAGTSARVLAAHGSDGEQVSLRLNGHPPGVWANGSAPHPERRPNGYALGLVSGGSAQESQGNTGLPDVELLSHELKGVSPEPPGLDDPLAQDGAGVS | binds | 
spin labeled wild type full length human adenosine A2a receptor with a C-terminal 10 histidine tag (receptor, UniProt P29274 1-412, looked up, nitroxide radical MTSL spin label attached to free cysteines (thiol of C394)) MPIMGSSVYITVELAIAVLAILGNVLVCWAVWLNSNLQNVTNYFVVSLAAADIAVGVLAIPFAITISTGFCAACHGCLFIACFVLVLTQSSIFSLLAIAIDRYIAIRIPLRYNGLVTGTRAKGIIAICWVLSFAIGLTPMLGWNNCGQPKEGKNHSQGCGEGQVACLFEDVVPMNYMVYFNFFACVLVPLLLMLGVYLRIFLAARRQLKQMESQPLPGERARSTLQKEVHAAKSLAIIVGLFALCWLPLHIINCFTFFCPDCSHAPLWLMYLAIVLSHTNSVVNPFIYAYRIREFRQTFRKIIRSHVLRQQEPFKAAGTSARVLAAHGSDGEQVSLRLNGHPPGVWANGSAPHPERRPNGYALGLVSGGSAQESQGNTGLPDVELLSHELKGVCPEPPGLDDPLAQDGAGVS |  | binds
